Columns and labels:
[1] = biological target: microtubules (without MAP7); experiment: single-molecule TIRF microscopy
[2] = biological target: MAP7-decorated microtubules (mammalian MAP7) (UniProt O88735); experiment: optical trapping
[3] = biological target: microtubules (without MAP7); experiment: optical trapping

Substance	mean dwell time [1] [s]	increase of the relative binding rate against microtubules without MAP7 [2] [%]	unbinding rate at zero load [2] [s⁻¹]	unbinding rate at zero load [3] [s⁻¹]
MAP7 (ensconsin, E-MAP-115), mammalian, with N-terminal FLAG and SNAP-tags (from UniProt O88735 1-730) (natural protein)	114			
dynein on isolated phagosomes (teams of dynein motors) (complex)		10	0.0207	0.0237
